From publication PMC6133441, “Characterization of neutralizing antibodies reacting with the 213-224 amino-acid segment of human galectin-9” (PLoS ONE, 2018)

T1: peptide 13 (Homo sapiens, UniProt O00182)
T1 construct: 15-mer of human gal-9, thirteenth of 15 overlapping peptides spanning aa 202-230 (gal-9L coordinates) with a shift of one aa; limits worked out from peptide 1 = 202-216; they are counted from the set
T1 chain: PPMMYPHPAYPMPFI

T2: peptide 12 (Homo sapiens, UniProt O00182)
T2 construct: 15-mer of human gal-9, twelfth of 15 overlapping peptides spanning aa 202-230 (gal-9L coordinates) with a shift of one aa; limits worked out from peptide 1 = 202-216; they are counted from the set
T2 chain: IPPMMYPHPAYPMPF


Experiments:
[1] = biological target: T3, human galectin-7 (Homo sapiens, UniProt P47929, biotin (sites not given)); assay: ELISA; direct ELISA: antibodies coated in a 96-well plate; biotinylated galectins at 1 nM, detected by streptavidin-HRP; for gal-9S also 1h at 37°C with or without lactose 20 mM (S1 Fig); settings: both partners purified
T3 construct: human galectin-7, recombinant; also called h-Gal 7; source: recombinant

[2] = biological target: T4, human galectin-1 (Homo sapiens, UniProt P09382, biotin (sites not given)); assay: as above; settings: both partners purified
T4 construct: human galectin-1, recombinant; also called h-Gal 1; source: recombinant

[3] = biological target: T5, human galectin-4 (Homo sapiens, UniProt P56470, biotin (sites not given)); assay: as above; settings: both partners purified
T5 construct: human galectin-4, recombinant; also called h-Gal 4; source: recombinant

[4] = biological target: T6, human galectin-8 (Homo sapiens, UniProt O00214, biotin (sites not given)); assay: as above; settings: both partners purified
T6 construct: human galectin-8, recombinant; also called h-Gal 8; source: recombinant

[5] = biological target: T7, human galectin-10 (Homo sapiens, UniProt Q05315, biotin (sites not given)); assay: as above; settings: both partners purified
T7 construct: human galectin-10, recombinant; also called h-Gal 10; source: recombinant

[6] = biological target: T8, human galectin-2 (Homo sapiens, UniProt P05162, biotin (sites not given)); assay: as above; settings: both partners purified
T8 construct: human galectin-2, recombinant; also called h-Gal 2; source: recombinant

[7] = biological target: T9, CTB oligopeptide containing the amino-acids 208 to 232 of gal-9L (Homo sapiens, biotin at the C-terminus: K(biotin)-OH); assay: SPR; Biacore T200; biotinylated CTB or scramble oligopeptide on a streptavidin (SA) chip; Gal-Nab1 and Gal-Nab2 as analytes, 0.05 to 3.2 nM, 40 μL/min, 700 s, PBS with albumin 0.1 mg/mL and tween 0.05%; dissociation 800 s; apparent affinities (avidity); parameters: t1/2: unit not given here; settings: both partners purified
T9 construct: stuffer aa not related to gal-9, designed to increase solubility and accessibility; stuffer aa not related to gal-9; the last lysine carries the biotin; 32-mer; also called CTB-gal-9 peptide; CTB peptide

[8] = biological target: human recombinant galectin-9, short isoform (gal-9S) (Homo sapiens, UniProt O00182-3, strain, biotin in the direct ELISA (sites not given); unlabelled in the cell assays); assay: cell-based or functional assay
[9] = biological target: T1, peptide 13; assay: ELISA; competition: Gal-Nab1 (0.06 μg/mL) or Gal-Nab2 (0.3 μg/mL) pre-incubated with each 15-mer peptide (0.0001 to 10 μg/mL), then added to plates coated with gal-9; HRP-conjugated anti-mouse antibodies; percent inhibition; settings: both partners purified
[10] = biological target: T2, peptide 12; assay: as above; settings: both partners purified

Sequence of human recombinant galectin-9, short isoform (gal-9S) (O00182 whole entry, looked up, change not shown, canonical isoform): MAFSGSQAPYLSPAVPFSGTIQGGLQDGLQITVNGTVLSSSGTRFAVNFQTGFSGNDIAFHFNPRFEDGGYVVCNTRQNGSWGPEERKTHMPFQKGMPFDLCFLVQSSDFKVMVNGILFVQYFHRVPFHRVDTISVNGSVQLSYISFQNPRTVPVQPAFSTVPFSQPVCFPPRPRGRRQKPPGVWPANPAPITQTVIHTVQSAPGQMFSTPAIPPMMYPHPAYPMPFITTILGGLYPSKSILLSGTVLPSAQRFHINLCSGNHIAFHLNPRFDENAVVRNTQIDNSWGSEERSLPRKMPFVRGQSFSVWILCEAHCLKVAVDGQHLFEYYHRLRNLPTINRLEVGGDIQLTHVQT
T9 sequence (chain, as listed by the source): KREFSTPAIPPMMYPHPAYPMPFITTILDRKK
T7 sequence (Q05315 whole entry): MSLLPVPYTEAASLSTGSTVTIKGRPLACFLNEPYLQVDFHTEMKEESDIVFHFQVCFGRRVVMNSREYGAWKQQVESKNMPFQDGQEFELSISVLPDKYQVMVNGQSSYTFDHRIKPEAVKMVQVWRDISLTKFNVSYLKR
T5 sequence (P56470 whole entry): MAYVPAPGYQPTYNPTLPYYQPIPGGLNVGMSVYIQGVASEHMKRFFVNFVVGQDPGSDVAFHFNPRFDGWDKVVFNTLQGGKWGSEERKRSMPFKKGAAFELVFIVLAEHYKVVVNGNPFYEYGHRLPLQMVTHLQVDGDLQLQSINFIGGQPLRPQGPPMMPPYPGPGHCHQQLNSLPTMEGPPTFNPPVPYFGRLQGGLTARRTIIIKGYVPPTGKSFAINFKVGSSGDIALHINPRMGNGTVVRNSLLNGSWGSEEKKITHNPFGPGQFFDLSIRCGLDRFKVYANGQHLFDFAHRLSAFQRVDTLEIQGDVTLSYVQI
T8 sequence (P05162 whole entry): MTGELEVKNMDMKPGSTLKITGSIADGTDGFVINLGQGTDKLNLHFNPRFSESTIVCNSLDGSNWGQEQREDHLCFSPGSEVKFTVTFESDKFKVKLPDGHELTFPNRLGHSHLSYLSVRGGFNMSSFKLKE
T3 sequence (P47929 whole entry): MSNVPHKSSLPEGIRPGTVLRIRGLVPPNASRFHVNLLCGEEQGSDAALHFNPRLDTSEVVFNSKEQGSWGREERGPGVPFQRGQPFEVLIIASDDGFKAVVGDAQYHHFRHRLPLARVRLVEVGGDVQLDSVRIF
T4 sequence (P09382 whole entry): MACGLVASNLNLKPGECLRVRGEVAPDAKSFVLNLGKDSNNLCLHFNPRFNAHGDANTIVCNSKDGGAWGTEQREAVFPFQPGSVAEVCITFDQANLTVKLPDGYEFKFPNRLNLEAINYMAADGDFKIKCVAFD
T6 sequence (O00214 whole entry): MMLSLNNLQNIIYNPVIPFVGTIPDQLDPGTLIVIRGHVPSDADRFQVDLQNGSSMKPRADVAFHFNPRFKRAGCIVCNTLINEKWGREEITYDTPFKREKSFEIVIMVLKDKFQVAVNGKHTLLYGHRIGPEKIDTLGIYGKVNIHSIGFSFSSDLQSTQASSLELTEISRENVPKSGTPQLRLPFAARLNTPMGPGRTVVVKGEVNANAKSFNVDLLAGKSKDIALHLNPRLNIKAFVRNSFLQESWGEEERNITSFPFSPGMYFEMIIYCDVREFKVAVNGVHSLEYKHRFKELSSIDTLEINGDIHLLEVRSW

Row | Binder | binding result [1] | binding result [2] | binding result [3] | binding result [4] | binding result [5] | binding result [6] | Kd [7] [nM] | koff [7] [s⁻¹] | kon [7] [M⁻¹ s⁻¹] | t1/2 [7] | EC50 of prevention of gal-9-induced apoptotic death (annexin-V+ PI+) of activated primary CD3+ T cells; gal-9S 40 nM, 36 h, antibody 0.3 to 100 nM [8] [nM] | EC50 of reduction of gal-9-induced non-lethal PS translocation (annexin-V+ PI-) in activated primary CD3+ T cells; gal-9S 40 nM, 36 h, antibody 0.3 to 100 nM [8] [nM] | binding result [9] | binding result [10]
1 | Gal-Nab1 (antibody, V domains shown, heavy chain CDR1; heavy chain CDR2; heavy chain CDR3; mouse IgG1 heavy chain constant region (isotype IgG1, kappa as stated); light chain CDR1; light chain CDR2; light chain CDR3; mouse kappa light chain constant region (isotype IgG1, kappa as stated); Mouse IgG1, kappa; Raised against the C-terminal part of human gal-9 (residues 191 to 355 of gal-9L); also called anti-gal-9 mAb) VH: KVQLQQSGAELVKPGASVKLSCKASGYTFTDYTIHWVKQRSGQGLEWIGWFYPGSHSIKYNEQFKDRATLTADKSSSTVYMELSRLTSEDSAVYFCTRHGGYDGFDYWGQGTTLTVSS VL: DIVMSQSPSSLAVSVGEKITMSCKSSQSLFYSTNQKNYLAWYQQKPGQSPKLLIYWASTRESGVPDRFTGSGSGTDFTLTISSVKAEDLAVYYCQQYYYFPYTFGGGTKLEIK | no binding (tested: 1 nM) | no binding (tested: 1 nM) | no binding (tested: 1 nM) | no binding (tested: 1 nM) | no binding (tested: 1 nM) | no binding (tested: 1 nM) | 0.01 | 2.3e-05 | 2.3e+06 | 8.37 | 10 | 50 | binds | binds
2 | Gal-Nab2 (antibody, V domains shown, heavy chain CDR1; that of Gal-Nab1 has 17); heavy chain CDR3; mouse IgG1 heavy chain constant region (isotype IgG1, kappa as stated); light chain CDR1; light chain CDR2; light chain CDR3; mouse kappa light chain constant region (isotype IgG1, kappa as stated); Mouse IgG1, kappa; Raised against the C-terminal part of human gal-9 (residues 191 to 355 of gal-9L); also called anti-gal-9 mAb) VH: KVQLQQSGAELVKPGASVKLSCKASGYTFTEYTIHWVKQRSGQGLEWIGWFYPGSGSMEYNEKFDKATLTADNSSSTVYMELSRLTSEDSAVYFCERHGGYDGFDYWGQGTTLTVSS VL: DIVMSQSPSSLAVSVGEKVTMSCKSSQSLLYSNNQKNYLAWYQQKPGQSPKLLIYWASTRGSGVPDRFTGSGSGTDFTLTISSVKAEDLAIYYCQQYYSYPFTFGGGTKLEIK | no binding (tested: 1 nM) | no binding (tested: 1 nM) | no binding (tested: 1 nM) | no binding (tested: 1 nM) | no binding (tested: 1 nM) | no binding (tested: 1 nM) | – | – | – | – | 25 | – | – | binds
